Target: T1, full-length recombinant human NF2, phosphorylated by PKAc (human, UniProt P35240 1-595, phosphoserine at S10 and S518 (phosphorylated by PKAc in vitro))
T1 sequence (looked up): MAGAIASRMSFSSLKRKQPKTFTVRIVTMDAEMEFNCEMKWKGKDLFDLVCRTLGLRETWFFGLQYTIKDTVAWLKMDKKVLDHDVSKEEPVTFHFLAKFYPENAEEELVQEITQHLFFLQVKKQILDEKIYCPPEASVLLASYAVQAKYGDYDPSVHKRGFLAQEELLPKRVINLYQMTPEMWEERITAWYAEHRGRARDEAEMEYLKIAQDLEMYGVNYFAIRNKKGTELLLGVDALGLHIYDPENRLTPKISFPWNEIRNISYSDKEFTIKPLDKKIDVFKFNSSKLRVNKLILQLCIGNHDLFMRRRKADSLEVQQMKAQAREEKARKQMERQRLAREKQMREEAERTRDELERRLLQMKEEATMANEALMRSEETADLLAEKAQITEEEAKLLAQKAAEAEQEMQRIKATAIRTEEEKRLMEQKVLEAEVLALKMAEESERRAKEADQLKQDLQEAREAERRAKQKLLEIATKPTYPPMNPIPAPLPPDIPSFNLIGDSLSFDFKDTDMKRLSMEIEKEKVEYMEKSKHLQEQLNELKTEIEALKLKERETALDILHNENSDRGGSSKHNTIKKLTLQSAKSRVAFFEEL
Test: cell-based or functional assay

B1: recombinant human PLPP/CIN (enzyme, UniProt Q96GD0 1-296, looked up)
chain: MARCERLRGAALRDVLGRAQGVLFDCDGVLWNGERAVPGAPELLERLARAGKAALFVSNNSRRARPELALRFARLGFGGLRAEQLFSSALCAARLLRQRLPGPPDAPGAVFVLGGEGLRAELRAAGLRLAGDPSAGDGAAPRVRAVLVGYDEHFSFAKLREACAHLRDPECLLVATDRDPWHPLSDGSRTPGTGSLAAAVETASGRQALVVGKPSPYMFECITENFSIDPARTLMVGDRLETDILFGHRCGMTTVLTLTGVSRLEEAQAYLAAGQHDLVPHYYVESIADLTEGLED
  NF2-S10 phosphorylation (western blot) in the in vitro phosphatase assay with recombinant proteins, after PKAc: ~0.63 fold of vehicle level
